The experiment has as its target SARS-CoV-2 spike protein variant Y483A (Table 27), on VSV pseudoparticles (SARS-CoV-2) (UniProt P0DTC2). Nature of the experiment: cell-based or functional assay.

Our source for the Relative neutralization (5 µg/ml, Vero cells) values is patent US20240043504A1.

The substance mAb10987 (antibody) returned a Relative neutralization (5 µg/ml, Vero cells) of 99%.
